Source: paper PMC9259969, “Biophysical Screening Pipeline for Cryo-EM Grid Preparation of Membrane Proteins” (Frontiers in Molecular Biosciences, 2022)

B1: TolC (natural protein, Escherichia coli, UniProt P02930 23-493, looked up)
chain: ENLMQVYQQARLSNPELRKSAADRDAAFEKINEARSPLLPQLGLGADYTYSNGYRDANGINSNATSASLQLTQSIFDMSKWRALTLQEKAAGIQDVTYQTDQQTLILNTATAYFNVLNAIDVLSYTQAQKEAIYRQLDQTTQRFNVGLVAITDVQNARAQYDTVLANEVTARNNLDNAVEQLRQITGNYYPELAALNVENFKTDKPQPVNALLKEAEKRNLSLLQARLSQDLAREQIRQAQDGHLPTLDLTASTGISDTSYSGSKTRGAAGTQYDDSNMGQNKVGLSFSLPIYQGGMVNSQVKQAQYNFVGASEQLESAHRSVVQTVRSSFNNINASISSINAYKQAVVSAQSSLDAMEAGYSVGTRTIVDVLDATTTLYNAKQELANARYNYLINQLNIKSALGTLNEQDLLALNNALSKPVSTNPENVAPQTPEQNAIADGYAPDSPAPVVQQTSARTTTSNGHNPFRN
notes: TolC, outer membrane protein of Escherichia coli; molecular weight of 161.7 kDa printed for the trimeric state; The protomer is written here; In DDM micelles in the assays; also called integral membrane protein TolC; source: E. coli C43(DE3)ΔAcrAB, solubilised in DDM, purified (HiTrap HP with imidazole elution, SEC)
B2: Recombinant human ENTH domain from epsin-1 (hENTH) (protein)
chain: NIVHNYSEAEIKVREATSNDPWGPSSSLMSEIADLTYNVVAFSEIMSMIWKRLNDHGKNWRHVYKAMTLMEYLIKTGSERVSQQCKENMYAVQTLKDFQYVDRDGKDQGVNVREKAKQLVALLRDEDRLREER

Experiments:
[1] = target: the molecule itself; test: mass photometry; 150 nM TolC in the presence of 0.003% DDM; controls with 0.03% and 0.003% DDM without protein
[2] = target: Q9Y6I3; test: mass photometry; hENTH at 100 nM in the presence of 200 µM PI(4,5)P2; Refeyn OneMP; control: buffer with 200 µM PI(4,5)P2; details: other: mass photometry

| Protein | binding result [1] | N with PI(4,5)P2 [2] |
| --- | --- | --- |
| B1 | binds | – |
| B2 | – | corresponding to a hexamer of hENTH in the presence of 200 µM PI(4,5)P2 |
